In the supplement of paper PMC9112550, “Optimization of the antimicrobial peptide Bac7 by deep mutational scanning” (BMC Biology, 2022):

The sequences below were run on Escherichia coli TOP10 (assay: shrunken log2 fold change of peptide-encoding DNA abundance (4.5 h post-induction vs induction); higher = less antimicrobial activity (less host growth inhibition)). Conditions: time post-induction: 4.5 h; library: site-saturation at positions 5, 18, 19, 20.
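Further: peptides expressed intracellularly from a pBAD plasmid library in pooled LB shake-flask culture, induced with 0.3% L-arabinose, DNA abundance read by NGS, three biological replicates, DESeq2 with apeglm shrinkage.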

Sequence | shrunken log2 fold change
RRIRYRPPRLPRPRPRPMTRPRP | -0.139
RRIRCRPPRLPRPRPRPVMLPRP | -0.433
RRIRHRPPRLPRPRPRPDSLPRP | -0.0392
RRIRIRPPRLPRPRPRPWKLPRP | -0.0644
RRIRDRPPRLPRPRPRPVYCPRP | -0.115
RRIRARPPRLPRPRPRPFKRPRP | 0.0331
RRIRWRPPRLPRPRPRPWVRPRP | -0.172
RRIRSRPPRLPRPRPRPVQRPRP | 0.363
RRIRFRPPRLPRPRPRPKEAPRP | 0.084
RRIRARPPRLPRPRPRPCMNPRP | -0.0756
RRIRTRPPRLPRPRPRPEGNPRP | -0.311
RRIRDRPPRLPRPRPRPFYSPRP | -0.304
RRIRARPPRLPRPRPRPCCTPRP | 0.485
RRIRGRPPRLPRPRPRPKILPRP | 0.229
RRIRQRPPRLPRPRPRPTQTPRP | -0.00783
RRIRCRPPRLPRPRPRPGSPPRP | 0.169
RRIRQRPPRLPRPRPRPQTPPRP | 0.0705
RRIRERPPRLPRPRPRPYSPPRP | -0.0774
RRIRARPPRLPRPRPRPRCMPRP | 1.62
RRIRSRPPRLPRPRPRPWNAPRP | -0.443
RRIRHRPPRLPRPRPRPKIEPRP | 0.0371
RRIRTRPPRLPRPRPRPWGMPRP | -0.126
RRIRWRPPRLPRPRPRPLPHPRP | 0.188
RRIRRRPPRLPRPRPRPGLLPRP | 0.0882
RRIRVRPPRLPRPRPRPMETPRP | -0.074

Sequence | shrunken log2 fold change
RRIRSRPPRLPRPRPRPCLLPRP | -0.284
RRIRFRPPRLPRPRPRPRPKPRP | 0.98
RRIRLRPPRLPRPRPRPYGIPRP | -0.00489
RRIRSRPPRLPRPRPRPYDTPRP | -0.532
RRIRPRPPRLPRPRPRPEEFPRP | -0.0108
RRIRWRPPRLPRPRPRPHFFPRP | -0.0221
RRIRNRPPRLPRPRPRPENSPRP | -0.00522
RRIRCRPPRLPRPRPRPFYKPRP | 0.979
RRIRGRPPRLPRPRPRPVFVPRP | 0.324
RRIRQRPPRLPRPRPRPPTCPRP | 0.224
RRIRARPPRLPRPRPRPTYYPRP | -0.119
RRIRTRPPRLPRPRPRPMNIPRP | -0.259
RRIRERPPRLPRPRPRPGIIPRP | -0.0249
RRIRERPPRLPRPRPRPHPLPRP | -0.0971
RRIRYRPPRLPRPRPRPSHTPRP | -1.39
RRIRIRPPRLPRPRPRPRGAPRP | 0.175
RRIRYRPPRLPRPRPRPGGPPRP | 0.106
RRIRYRPPRLPRPRPRPEGWPRP | 0.489
RRIRPRPPRLPRPRPRPKMDPRP | 0.0116
RRIRQRPPRLPRPRPRPNNNPRP | -0.825
RRIRVRPPRLPRPRPRPKMKPRP | 0.839
RRIRLRPPRLPRPRPRPMNRPRP | -0.0112
RRIRRRPPRLPRPRPRPMWWPRP | 0.291
RRIRNRPPRLPRPRPRPVDTPRP | 0.033
RRIRGRPPRLPRPRPRPRNEPRP | 0.725

Sequence | shrunken log2 fold change
RRIRNRPPRLPRPRPRPVNEPRP | -0.0227
RRIRVRPPRLPRPRPRPLWIPRP | -0.189
RRIRDRPPRLPRPRPRPFRCPRP | -0.0101
RRIRMRPPRLPRPRPRPRPYPRP | 0.126
RRIRMRPPRLPRPRPRPAECPRP | 0.042
RRIRWRPPRLPRPRPRPTIKPRP | -0.125
RRIRTRPPRLPRPRPRPNGCPRP | 0.0101
RRIRNRPPRLPRPRPRPGPFPRP | 0.00962
RRIRGRPPRLPRPRPRPGTAPRP | 2.14
RRIRMRPPRLPRPRPRPCMQPRP | -0.143
RRIRLRPPRLPRPRPRPFQGPRP | 0.0498
RRIRDRPPRLPRPRPRPDYDPRP | -0.0133
RRIRMRPPRLPRPRPRPYNTPRP | -0.862
RRIRPRPPRLPRPRPRPEAQPRP | 0.904
RRIRNRPPRLPRPRPRPYAHPRP | -0.176
RRIRPRPPRLPRPRPRPNFLPRP | 0.0421
RRIRQRPPRLPRPRPRPSTIPRP | -0.0567
RRIRYRPPRLPRPRPRPKDDPRP | -0.153
RRIRARPPRLPRPRPRPTQMPRP | 0.563
RRIRPRPPRLPRPRPRPRGAPRP | 0.495
RRIRTRPPRLPRPRPRPVYQPRP | -0.0843
RRIRGRPPRLPRPRPRPLSCPRP | 0.276
RRIRPRPPRLPRPRPRPSQRPRP | 0.229
RRIRDRPPRLPRPRPRPHHWPRP | 0.172
RRIRDRPPRLPRPRPRPKLPPRP | 0.0818
